{"source": "paper PMC9365803", "about": "“Identification of a HTT-specific binding motif in DNAJB1 essential for suppression and disaggregation of HTT” (Nature Communications, 2022)", "key": {"HTTExon1Q48 [1]": {"molecular_target": "HTTExon1Q48"}, "HTTExon1Q48 [2]": {"molecular_target": "HTTExon1Q48", "remark": "listed apart in the source"}, "[3]": {"molecular_target": "the molecule itself", "assay": "FRET or BRET; fibrilization assay: equimolar GST-HTTExon1Q48-CyPet and GST-HTTExon1Q48-YPet, 0.75 µM in all; 30 mM HEPES pH 7.4, 150 mM NaCl, 5 mM MgCl2, 1 mM DTT, 5 mM ATP with regenerating system; without chaperones; FRET rises on aggregation"}, "DNAJB1^wt [4]": {"molecular_target": "T1, DNAJB1^wt (human, UniProt P25685 1-340)", "T1 construct": "DNAJB1 (human Hsp40), class B J-domain protein; primers M1/S1 start at the start codon and the stop codon follows residue 340 (primers E, T1); also called wt DNAJB1; Hsp40; source: E. coli BL21-CodonPlus (DE3)-RIPL, purified (Ni-NTA; His-Smt3 tag cleaved with His-Ulp1); not shown: 6His-Smt3, N-terminal, cleaved", "T1 sequence (P25685 whole entry)": "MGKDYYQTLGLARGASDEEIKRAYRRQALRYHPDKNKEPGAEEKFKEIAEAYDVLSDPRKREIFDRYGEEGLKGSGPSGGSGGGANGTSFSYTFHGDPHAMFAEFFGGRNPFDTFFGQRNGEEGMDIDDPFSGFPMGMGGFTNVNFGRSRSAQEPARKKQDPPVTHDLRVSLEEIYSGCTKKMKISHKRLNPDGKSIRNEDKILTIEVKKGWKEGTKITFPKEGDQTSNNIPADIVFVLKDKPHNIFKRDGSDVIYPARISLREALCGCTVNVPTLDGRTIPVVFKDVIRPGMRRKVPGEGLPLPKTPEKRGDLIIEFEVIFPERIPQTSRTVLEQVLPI", "assay": "cross-linking; XL-MS: HTTExon1Q23/48 incubated with Hsc70, DNAJB1 and Apg2 in the presence of ATP; 5–10 μM total protein, 0.5–1 mM SDA, 30 min at room temperature, UV photoactivation, SDS-PAGE, in-gel digestion with elastase, LC/MS", "conditions": "both partners purified"}, "DNAJB1^wt [5]": {"molecular_target": "T1, DNAJB1^wt", "assay": "co-sedimentation; HTT fibril-binding assay: 2 µM HTTExon1Q48 aggregated 4.5 h at 20 °C; DNAJB1 variant added at 1 µM, 1 h at RT; sedimented at 20.000 rpm 30 min 4 °C; pellet analysed by Western blot", "conditions": "both partners purified"}}, "note": "Like-named read-outs stand apart in the source and are kept apart here."}
{"molecule": "DNAJB1^H244Q (from UniProt P25685 1-340) (natural protein)", "values": [{"measurement": "half-life (T1/2) of HTTExon1Q48 fibrilization, FRET assay, with Hsc70, Apg2 and ATP", "setting": "HTTExon1Q48 [1]", "value": 24, "unit": "h"}]}
{"molecule": "DNAJB1^H244F (from UniProt P25685 1-340) (natural protein)", "values": [{"measurement": "half-life (T1/2) of HTTExon1Q48 fibrilization, FRET assay, with Hsc70, Apg2 and ATP", "setting": "HTTExon1Q48 [1]", "value": 10, "unit": "h"}]}
{"molecule": "DNAJB1^H244R (from UniProt P25685 1-340) (natural protein)", "values": [{"measurement": "half-life (T1/2) of HTTExon1Q48 fibrilization, FRET assay, with Hsc70, Apg2 and ATP", "setting": "HTTExon1Q48 [1]", "value": 17, "unit": "h"}]}
{"molecule": "DNAJB1^K242A (from UniProt P25685 1-340) (natural protein)", "values": [{"measurement": "half-life (T1/2) of HTTExon1Q48 fibrilization, FRET assay, with Hsc70, Apg2 and ATP", "setting": "HTTExon1Q48 [2]", "value": 16, "unit": "h"}]}
{"molecule": "HTTExon1Q48ΔP2 (domain or fragment, Used soluble in the FRET assay and as fibrils in the disaggregation assay; also called HTTExon1Q48ΔP2-CyPet/YPet; source: E. coli BL21-CodonPlus (DE3)-RIPL, purified (glutathione sepharose); not shown: CyPet or YPet, C-terminal, kept) MATLEKLMKAFESLKSFQQQQQQQQQQQQQQQQQQQQQQQQQQQQQQQQQQQQQQQQQQQQQQQQPPPPPPPPPPPQLPQPPPQAQPLLPQAAEEPLHRP", "values": [{"measurement": "binding result", "setting": "[3]", "value": "binds"}]}
{"molecule": "HTTExon1Q48 (domain or fragment, first exon of huntingtin with an expanded stretch of 48 glutamines; The XL-MS methods say only HTT; the only purification told is that of GST-HTTExon1Q48-CyPet/YPet (pGEX-6P1), so tags in the XL-MS sample are not certain; In the FRET assay two forms (CyPet and YPet) are mixed equimolar; also called GST-HTTExon1Q48-CyPet/YPet; HTTExon1Q48-CyPet/YPet; source: E. coli BL21-CodonPlus (DE3)-RIPL, …) MATLEKLMKAFESLKSFQQQQQQQQQQQQQQQQQQQQQQQQQQQQQQQQQQQQQQQQQQQQQQQQPPPPPPPPPPPQLPQPPPQAQPLLPQLQPPPPPPPPPPGPAAAEEPLHRP", "values": [{"measurement": "binding result", "setting": "DNAJB1^wt [4]", "value": "binds"}, {"measurement": "binding result", "setting": "[3]", "value": "binds"}]}
{"molecule": "HTTExon1Q48 fibrils (other, first exon of huntingtin with 48 glutamines, as amyloid fibrils; Amyloid fibrils of many copies; also called HTT fibrils; preformed HTTExon1Q48 fibrils; not shown: GST, N-terminal, cleaved; CyPet, C-terminal, kept) MATLEKLMKAFESLKSFQQQQQQQQQQQQQQQQQQQQQQQQQQQQQQQQQQQQQQQQQQQQQQQQPPPPPPPPPPPQLPQPPPQAQPLLPQLQPPPPPPPPPPGPAAAEEPLHRP", "values": [{"measurement": "binding result", "setting": "DNAJB1^wt [5]", "value": "binds"}]}
